Experimental data published in PMC12418388, “DDX6 interacts with DDX3X to repress translation in microRNA-mediated silencing” (Nucleic Acids Research, 2025).

Biological target: T1, GST-DDX6 (wild type), recombinant (UniProt P54823 1-483)
T1 construct: DDX6 (DEAD-box helicase 6); Cloned in pGEX-KG; also called wild-type DDX6; source: E. coli BL21(DE3), purified (Glutathione Sepharose 4B)
T1 sequence (looked up): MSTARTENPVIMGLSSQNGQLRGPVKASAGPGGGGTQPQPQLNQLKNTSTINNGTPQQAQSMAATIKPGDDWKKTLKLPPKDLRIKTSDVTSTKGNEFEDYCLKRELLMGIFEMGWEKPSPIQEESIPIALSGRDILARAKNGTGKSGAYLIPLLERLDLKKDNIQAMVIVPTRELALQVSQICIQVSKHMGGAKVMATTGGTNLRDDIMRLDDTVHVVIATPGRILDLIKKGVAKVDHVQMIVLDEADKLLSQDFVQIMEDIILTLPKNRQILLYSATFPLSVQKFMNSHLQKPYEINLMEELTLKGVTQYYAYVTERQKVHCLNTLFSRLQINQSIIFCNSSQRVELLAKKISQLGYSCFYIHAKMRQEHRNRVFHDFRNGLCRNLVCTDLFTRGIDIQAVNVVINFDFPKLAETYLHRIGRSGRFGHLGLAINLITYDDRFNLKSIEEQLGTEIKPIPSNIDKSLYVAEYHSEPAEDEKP
Experiment: BLI; BLItz; 6xHis-MBP-DDX3X^166-590 loaded on Ni-NTA biosensors; GST-DDX6 or GST-DDX6^Mut6 at 125, 250 and 500 nM; 20 mM Tris-HCl pH 8.0, 150 mM KCl, 0.02% Tween 20, DTT, 1 mg/ml BSA; global fit to a 1:1 model
Settings: both partners purified

Kd: 389 nM
B1: 6xHis-MBP-DDX3X^166-590 (domain or fragment, UniProt Q62167 166-590, looked up)
chain: IPVEATGNNCPPHIESFSDVEMGEIIMGNIELTRYTRPTPVQKHAIPIIKEKRDLMACAQTGSGKTAAFLLPILSQIYADGPGEALRAMKENGRYGRRKQYPISLVLAPTRELAVQIYEEARKFSYRSRVRPCVVYGGAEIGQQIRDLERGCHLLVATPGRLVDMMERGKIGLDFCKYLVLDEADRMLDMGFEPQIRRIVEQDTMPPKGVRHTMMFSATFPKEIQMLARDFLDEYIFLAVGRVGSTSENITQKVVWVEEIDKRSFLLDLLNATGKDSLTLVFVETKKGADSLEDFLYHEGYACTSIHGDRSQRDREEALHQFRSGKSPILVATAVAARGLDISNVKHVINFDLPSDIEEYVHRIGRTGRVGNLGLATSFFNERNINITKDLLDLLVEAKQEVPSWLENMAFEHHYKGSSRGRSKS
notes: Cloned in pMCSG9; source: E. coli BL21(DE3), purified (Ni-NTA)
